Experimental findings from patent US20220315909 are described below.

Data set [1] concerns the target SEQ ID NO 17995.
Data set [2] has as its target SEQ ID NO 17997.
In data set [3] the target is SEQ ID NO 18003.
For data set [4], the target named is SEQ ID NO 18002.
Data set [5] has as its target SEQ ID NO 17994.
For data set [6], the target named is SEQ ID NO 17998.
Data set [7] concerns the target SEQ ID NO 17999.
Data set [8] has as its target SEQ ID NO 17996.
The target of data set [9] is SEQ ID NOs: 5-17201.
The target of data set [10] is SEQ ID NO 18000.
The target of data set [11] is SEQ ID NOs: 17202-17993.
The target in data set [12] is SEQ ID NO 18001.

B1: Recombinant Human Matriptase/ST14 Catalytic Domain (protein)
chain: not shown
Take B1: the “cleavage ratio (PAR) on peptide array, human MT-SP1 500 nM” value in [1] was “showed higher cleavage ratios than the sequence shown as SEQ ID NO: 3 for both the cleavages by human uPA and human MT-SP1”; in [2] it was “showed higher cleavage ratios than the sequence shown as SEQ ID NO: 3 for both the cleavages by human uPA and human MT-SP1”; in data set [3] it was “showed higher cleavage ratios than the sequence shown as SEQ ID NO: 3 for both the cleavages by human uPA and human MT-SP1”; in [4], “showed higher cleavage ratios than the sequence shown as SEQ ID NO: 3 for both the cleavages by human uPA and human MT-SP1”; in data set [5], “showed higher cleavage ratios than the sequence shown as SEQ ID NO: 3 for both the cleavages by human uPA and human MT-SP1”; in data set [6], “showed higher cleavage ratios than the sequence shown as SEQ ID NO: 3 for both the cleavages by human uPA and human MT-SP1”. The “cleavage ratio (PAR) on peptide array, human MT-SP1 500 nM” value in [7] was “showed higher cleavage ratios than the sequence shown as SEQ ID NO: 3 for both the cleavages by human uPA and human MT-SP1”; in [8], “showed higher cleavage ratios than the sequence shown as SEQ ID NO: 3 for both the cleavages by human uPA and human MT-SP1”; in [9], “showed higher cleavage ratios than the sequence shown as SEQ ID NO: 2 for both the cleavages by human uPA and human MT-SP1”; in data set [10], “showed higher cleavage ratios than the sequence shown as SEQ ID NO: 3 for both the cleavages by human uPA and human MT-SP1”; in [11], “showed higher cleavage ratios than the sequence shown as SEQ ID NO: 3 for both the cleavages by human uPA and human MT-SP1”; in data set [12] it was “showed higher cleavage ratios than the sequence shown as SEQ ID NO: 3 for both the cleavages by human uPA and human MT-SP1”.
